# Assays:
# [1] = system: sera binding to N6 mA coated ELISA plates; test: Competitive ELISA of antisera on N6 mA-BSA coated wells; parameters: species or system mice; details: 100 ng of competitor
# Procedure: Competitive ELISA were performed as previously described. Itoh, K., M. Mizugaki, and N. Ishida, Preparation of a monoclonal antibody specific for 1-methyladenosine and its application for the detection of elevated levels of 1-methyladenosine in urines from cancer patients. Jpn J Cancer Res, 1988. 79(10): p. 1130-8. Wells were coated with the N6 mA-BSA conjugate ensuring that binding activity was not directed against the KLH component of the immunogen. Specificity was determined by incubating the antisera with either N6-Methyl-2-deoxyadenosine (specific inhibitor for the desired activity) or 2-Deoxyadenosine 5-monophosphate and adding it to the coated well. When antisera bound to the coated well, no competition was present.
# [2] = system: nucleic acid recognition or cleavage site; details: mutant restriction enzyme relative to wild type; cited from earlier work
Molecule,inhibition of sera binding to N6 mA coated ELISA plates [1],% of WT cleavage activity [2]
"CNc1ncnc2c1ncn2[C@H]1C[C@H](O)[C@@H](CO)O1 [N6 mA, N6-Methyl-2-deoxyadenosine]",50%,
"Eco57I E92Q: Eco57I restriction enzyme with mutation E92Q (protein, UniProt P25239 1-998, looked up, variant E92Q) Type II restriction enzyme …: MNKKDQLQRLIDKYKSDIDYYRSARYNETQLRTDFLDQLFLILGWDITNAAGKPTNEREVLVEEGLKARAGENTKKPDYTFRLFSERKFFLQAKKPSVDISTTIEPALQVRRYGFTAKLKISVLSNFEYTAIYDCSNQVKETDSVANSRIKLYHFTELVDKFDEINNLIGRESVYTGHFDNEWSEIENKILRFSVDDLFLKQINDWRLLLANEFLQIKNELPEEKLNDLVQNYINSIVFLRVCEDRDLEEYETLYHFAQDKDFQSLVKKLKSSDKKYNSGLFSLEYIDELLSNANSCIWSIIEQLYFPQSTYSFSVFSSDILGNIYEIFLSEKVRIDELGNVKIQPKEEHIDRDVVTTPTHIVKEIIRNTVVEYCKGKSDIEILNSKFADIACGSGAFIIEAFQFIQDILIDYYIQNDKSKLQQISEHTYKLKFEVKREILCKCIYGIDKDYNATKACTFGLLLKLLEGETTETIGKDTPILPALDTNILFGNSLIDSGDKVKQEDIFSINPFDLTNYQFDVIVGNPPYMATEHMNQLTPKELDIYKRKYKSAYKQFDKYFLFIERSIQILKEYGYLGYILPSRFIKVDAGKKLRKFLSENKYLSKLISFGSHQVFKNKTTYTCLLFLNKENHDNFSFYEVKDFKKWLTREDKYLLSSTYQTSSLDSDTWVLEKKINDILKLMFSKSEQLGNIVGKSNVANGIQTSANKYYIHKEIKSENGFIYFEYDGIEYHIEKELTRPYFETNRSGDDSFYTYKDVEPNSFVVYPYKKVGERIQFIEYDELKRQYPKLFEFLQVVKVHLNDKKRSIKPDPTGPNEWYRYGRSQALENCDVDQKLIVGILSNGYKYSIDNHRTFVSSGGTAGYSIINIPNNVRYSIYYIQAILTSKYLEWFASIYGDIFRGRFVARGTKVQTRMPIPTIDFDDPKQKEIHDTISSKQQYLNKLYSQTQKSADRDKIIFERQFEQEKIQMDYLIKNLFDLGDLDSEIPTVEDLYKNL",,<0.1%
"EcoRV Q69E: EcoRV restriction enzyme with mutation Q69E (protein, UniProt P04390 2-245, looked up, variant Q69E) Type II restriction enzyme …: SLRSDLINALYDENQKYDVCGIISAEGKIYPLGSDTKVLSTIFELFSRPIINKIAEKHGYIVEEPKQENHYPDFTLYKPSEPNKKIAIDIKTTYTNKENEKIKFTLGGYTSFIRNNTKNIVYPFDQYIAHWIIGYVYTRVATRKSSLKTYNINELNEIPKPYKGVKVFLQDKWVIAGDLAGSGNTTNIGSIHAHYKDFVEGKGIFDSEDEFLDYWRNYERTSQLRNDKYNNISEYRNWIYRGRK",,<0.1%
"EcoRV N70D: EcoRV restriction enzyme with mutation N70D (protein, UniProt P04390 2-245, looked up, variant N70D) Type II restriction enzyme …: SLRSDLINALYDENQKYDVCGIISAEGKIYPLGSDTKVLSTIFELFSRPIINKIAEKHGYIVEEPKQQDHYPDFTLYKPSEPNKKIAIDIKTTYTNKENEKIKFTLGGYTSFIRNNTKNIVYPFDQYIAHWIIGYVYTRVATRKSSLKTYNINELNEIPKPYKGVKVFLQDKWVIAGDLAGSGNTTNIGSIHAHYKDFVEGKGIFDSEDEFLDYWRNYERTSQLRNDKYNNISEYRNWIYRGRK",,0%
"BamHI G91S: BamHI restriction enzyme with mutation G91S (protein, UniProt P23940 1-213, looked up, variant G91S) Type II restriction enzyme …: MEVEKEFITDEAKELLSKDKLIQQAYNEVKTSICSPIWPATSKTFTINNTEKNCNGVVPIKELCYTLLEDTYNWYREKPLDILKLEKKKGSPIDVYKEFIENSELKRVGMEFETGNISSAHRSMNKLLLGLKHGEIDLAIILMPIKQLAYYLTDRVTNFEELEPYFELTEGQPFIFIGFNAEAYNSNVPLIPKGSDGMSKRSIKKWKDKVENK",,1%
